Test results as given in US20220332804A1 (CSL INNOVATION, published 2022).

Key:
Test in all cases: SPR, mAb captured, C2 mutant analyte;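 also: Anti-C2 mAbs captured on goat anti-human IgG Biacore CM5 chips, alanine or serine C2 surface mutants flowed over at 37 °C, double-referenced sensorgrams fitted to a 1:1 binding model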
human C2 L453A = target: T1, human C2 L453A (human, UniProt P06681 21-752)
T1 sequence: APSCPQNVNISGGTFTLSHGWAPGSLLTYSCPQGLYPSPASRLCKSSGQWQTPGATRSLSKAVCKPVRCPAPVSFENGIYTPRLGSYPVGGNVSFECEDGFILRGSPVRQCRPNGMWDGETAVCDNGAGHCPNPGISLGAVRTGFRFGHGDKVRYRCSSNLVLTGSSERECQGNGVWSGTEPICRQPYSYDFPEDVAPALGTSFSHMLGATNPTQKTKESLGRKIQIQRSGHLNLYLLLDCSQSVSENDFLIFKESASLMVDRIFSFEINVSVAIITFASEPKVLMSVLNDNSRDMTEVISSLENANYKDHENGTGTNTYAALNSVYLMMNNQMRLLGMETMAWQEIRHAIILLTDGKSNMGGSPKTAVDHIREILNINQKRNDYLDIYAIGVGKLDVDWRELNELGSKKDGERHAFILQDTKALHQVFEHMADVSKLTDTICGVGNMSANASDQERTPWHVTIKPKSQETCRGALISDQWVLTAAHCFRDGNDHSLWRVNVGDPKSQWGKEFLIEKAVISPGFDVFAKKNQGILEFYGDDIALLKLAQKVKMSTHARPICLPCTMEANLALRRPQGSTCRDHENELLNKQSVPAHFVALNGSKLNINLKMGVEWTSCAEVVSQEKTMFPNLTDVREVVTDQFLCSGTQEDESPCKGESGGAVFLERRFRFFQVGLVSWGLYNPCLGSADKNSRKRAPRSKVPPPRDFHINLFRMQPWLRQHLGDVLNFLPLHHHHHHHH
Experimental: (§1) Surface plasmon resonance (SPR, Biacore) was used for all binding affinity analyses. In brief, goat anti-human IgG was directly immobilised onto the carboxymethyl dextran surface of CM5 sensorchips to approximately 12,000 RU using standard NHS/EDC chemistry at pH 5. The immobilised antibody surface was pre-conditioned with ten injections of polyclonal human IgG (Privigen 60 s) prepared at 1 μg/mL. Ligands (anti-C2 mAbs) were captured at the beginning of each cycle as described below. An adjacent spot or flow cell in which only Polyclonal IgG was capture was used as a reference surface. The goat anti-human IgG Fc antibody surface was regenerate in 100 mM H3PO4, injected for 45 seconds at the end of each cycle. Experiments were performed at 37° C. and the flow rate of each experiment was kept constant at 30 μL/min.
(§2) Sensogram data was double-referenced against a reference anti-IgG surface (i.e. minus anti-C2 mAb) and blank buffer injections obtained within each experiment. The binding data was fit to 1:1 (kinetic or steady-state) model using local Rmax and null refraction index (RI=0) when appropriate. Buffers and solutions were filtered (0.22 μm) prior to use.

human C2 I320A = target: T2, human C2 I320A (human, UniProt P06681 21-752)
T2 sequence: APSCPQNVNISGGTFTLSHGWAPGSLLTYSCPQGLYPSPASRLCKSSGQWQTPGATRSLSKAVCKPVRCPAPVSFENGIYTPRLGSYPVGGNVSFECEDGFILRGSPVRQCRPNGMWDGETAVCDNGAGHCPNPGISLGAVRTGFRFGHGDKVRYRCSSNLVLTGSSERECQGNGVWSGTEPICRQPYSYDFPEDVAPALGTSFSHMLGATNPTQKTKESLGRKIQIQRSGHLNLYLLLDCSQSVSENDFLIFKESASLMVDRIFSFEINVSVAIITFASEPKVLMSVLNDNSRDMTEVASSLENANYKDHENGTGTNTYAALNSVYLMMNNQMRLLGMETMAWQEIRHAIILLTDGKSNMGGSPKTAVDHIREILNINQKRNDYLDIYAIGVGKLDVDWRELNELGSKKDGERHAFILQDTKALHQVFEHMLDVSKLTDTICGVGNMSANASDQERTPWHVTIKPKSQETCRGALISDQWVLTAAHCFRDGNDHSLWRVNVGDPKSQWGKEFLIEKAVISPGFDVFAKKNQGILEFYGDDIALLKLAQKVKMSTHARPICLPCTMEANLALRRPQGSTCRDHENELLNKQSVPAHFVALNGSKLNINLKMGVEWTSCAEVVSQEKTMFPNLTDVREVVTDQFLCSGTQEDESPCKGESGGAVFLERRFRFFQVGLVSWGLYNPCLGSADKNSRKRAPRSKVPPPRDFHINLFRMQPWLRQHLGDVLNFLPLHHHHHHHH
Experimental: as §1, §2

human C2 D404A = target: T3, human C2 D404A (human, UniProt P06681 21-752)
T3 sequence: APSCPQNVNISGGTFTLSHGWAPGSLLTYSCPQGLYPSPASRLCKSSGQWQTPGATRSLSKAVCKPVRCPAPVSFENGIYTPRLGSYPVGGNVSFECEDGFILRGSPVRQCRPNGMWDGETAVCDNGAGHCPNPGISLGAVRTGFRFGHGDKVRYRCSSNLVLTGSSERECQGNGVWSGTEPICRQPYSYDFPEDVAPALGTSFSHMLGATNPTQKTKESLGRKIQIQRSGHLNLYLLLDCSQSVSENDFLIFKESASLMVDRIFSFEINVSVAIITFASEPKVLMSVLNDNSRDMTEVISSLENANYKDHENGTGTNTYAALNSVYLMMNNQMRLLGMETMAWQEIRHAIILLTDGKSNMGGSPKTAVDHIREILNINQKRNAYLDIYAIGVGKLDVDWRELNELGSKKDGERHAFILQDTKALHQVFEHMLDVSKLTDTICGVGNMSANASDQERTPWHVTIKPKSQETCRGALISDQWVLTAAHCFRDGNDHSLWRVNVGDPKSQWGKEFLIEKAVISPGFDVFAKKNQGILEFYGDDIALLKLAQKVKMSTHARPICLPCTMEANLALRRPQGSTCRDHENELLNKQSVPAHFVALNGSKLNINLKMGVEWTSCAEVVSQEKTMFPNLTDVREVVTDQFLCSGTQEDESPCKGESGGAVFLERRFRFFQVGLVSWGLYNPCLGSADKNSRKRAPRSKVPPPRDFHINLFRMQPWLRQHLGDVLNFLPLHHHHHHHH
Experimental: as §1, §2

human C2 D269A = target: T4, human C2 D269A (human, UniProt P06681 21-752)
T4 sequence: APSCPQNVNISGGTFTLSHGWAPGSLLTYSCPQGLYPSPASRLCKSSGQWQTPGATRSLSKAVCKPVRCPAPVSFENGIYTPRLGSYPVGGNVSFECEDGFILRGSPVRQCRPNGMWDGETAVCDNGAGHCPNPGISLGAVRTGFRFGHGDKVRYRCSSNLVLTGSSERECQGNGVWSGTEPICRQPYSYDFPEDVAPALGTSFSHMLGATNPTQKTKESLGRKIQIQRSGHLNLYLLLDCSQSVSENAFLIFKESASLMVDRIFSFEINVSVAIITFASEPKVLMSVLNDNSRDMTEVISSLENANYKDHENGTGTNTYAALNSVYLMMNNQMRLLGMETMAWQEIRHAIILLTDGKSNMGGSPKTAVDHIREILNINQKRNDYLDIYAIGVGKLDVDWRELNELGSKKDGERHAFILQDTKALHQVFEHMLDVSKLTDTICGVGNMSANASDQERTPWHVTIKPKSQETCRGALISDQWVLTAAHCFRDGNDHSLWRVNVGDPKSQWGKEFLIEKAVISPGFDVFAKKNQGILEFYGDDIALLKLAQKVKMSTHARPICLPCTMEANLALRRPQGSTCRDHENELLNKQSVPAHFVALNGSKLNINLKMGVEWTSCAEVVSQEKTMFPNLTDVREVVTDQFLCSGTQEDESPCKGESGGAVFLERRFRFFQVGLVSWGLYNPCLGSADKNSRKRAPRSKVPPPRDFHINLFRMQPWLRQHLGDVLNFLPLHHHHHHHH
Experimental: as §1, §2

B1: RF16-214 (antibody, V domains shown)
VH: EVQLLESGGGLVQPGGSLRLSCAASGFTFSWYQMMWVRQAPGKGLEWVSRIYPSGGGTAYADSVKGRFTISRDNSKNTLYLQMNSLRAEDTAVYYCARDAGYGDNWGQGTLVTVSS
VL: QSALTQPPSVSVSPGQTASITCSGDKLGEKYASWYQQKAGQSPVMVIYQDRKRPSGIPERFSGSNSGNTATLTISGTQAMDEADYYCQAWDTRAVVFGGGTKLTVLG
Kd (human C2 L453A): 1410 nM
binding result (human C2 I320A): no binding
Kd (human C2 D404A): 77.6 nM
Kd (human C2 D269A): 17.2 nM
